This passage reports Kd, Peak Conductance (nS), Binding Mode NS-S and Frequency with which sweeps yielded an IV curve results from patent US20220098635A1.

Where two headings read alike, the source gives them in different places.

Broadly, the Kd is the equilibrium constant for the complex coming apart. Low readings indicate a tighter complex, high ones a looser complex.

For assay [1], the target named is RGD peptide (cyclo(Arg-Gly-Asp-D-Phe-Cys)). In words: method not stated.
For assay [2] the target is unchanged. The assay is described as follows: cell-based or functional assay.
The target is the same in assay [3].
Assay [4] shares this target. The source holds these as a separate data set.
The target is the same in assay [5]. The assay is described as follows: STM junction, bare probe (NA), RGD peptide on substrate only, gap Z0 + 2 nm.
Assay [6] has the same target. The source holds these as a separate data set.

Chain of αVβ3 Integrin (receptor) (P06756 31-992): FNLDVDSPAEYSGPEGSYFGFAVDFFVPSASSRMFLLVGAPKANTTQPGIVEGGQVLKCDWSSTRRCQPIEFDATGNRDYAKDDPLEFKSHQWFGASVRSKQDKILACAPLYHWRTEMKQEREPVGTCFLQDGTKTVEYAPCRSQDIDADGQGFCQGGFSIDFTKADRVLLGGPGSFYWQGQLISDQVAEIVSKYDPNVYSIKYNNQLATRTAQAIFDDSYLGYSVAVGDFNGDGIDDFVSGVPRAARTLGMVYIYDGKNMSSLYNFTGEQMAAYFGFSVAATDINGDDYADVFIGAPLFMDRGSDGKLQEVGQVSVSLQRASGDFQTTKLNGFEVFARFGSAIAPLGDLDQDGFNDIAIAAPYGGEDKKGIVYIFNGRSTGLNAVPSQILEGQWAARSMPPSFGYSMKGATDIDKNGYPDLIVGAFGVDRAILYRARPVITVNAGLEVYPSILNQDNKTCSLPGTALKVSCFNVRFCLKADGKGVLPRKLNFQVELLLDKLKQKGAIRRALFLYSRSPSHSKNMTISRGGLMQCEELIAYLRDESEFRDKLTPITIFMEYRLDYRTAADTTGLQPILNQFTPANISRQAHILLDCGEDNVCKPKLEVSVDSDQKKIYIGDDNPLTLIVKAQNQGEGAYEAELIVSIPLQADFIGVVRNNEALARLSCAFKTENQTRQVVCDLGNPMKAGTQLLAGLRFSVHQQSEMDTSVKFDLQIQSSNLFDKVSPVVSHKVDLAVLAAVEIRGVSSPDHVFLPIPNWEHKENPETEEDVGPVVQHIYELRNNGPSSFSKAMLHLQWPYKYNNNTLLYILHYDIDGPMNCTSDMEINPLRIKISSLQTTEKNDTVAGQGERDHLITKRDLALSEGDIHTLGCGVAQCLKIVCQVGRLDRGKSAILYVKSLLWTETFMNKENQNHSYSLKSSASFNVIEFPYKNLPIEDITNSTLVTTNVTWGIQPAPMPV
Chain of αVβ3 Integrin (receptor) (P05106 27-718, further chain): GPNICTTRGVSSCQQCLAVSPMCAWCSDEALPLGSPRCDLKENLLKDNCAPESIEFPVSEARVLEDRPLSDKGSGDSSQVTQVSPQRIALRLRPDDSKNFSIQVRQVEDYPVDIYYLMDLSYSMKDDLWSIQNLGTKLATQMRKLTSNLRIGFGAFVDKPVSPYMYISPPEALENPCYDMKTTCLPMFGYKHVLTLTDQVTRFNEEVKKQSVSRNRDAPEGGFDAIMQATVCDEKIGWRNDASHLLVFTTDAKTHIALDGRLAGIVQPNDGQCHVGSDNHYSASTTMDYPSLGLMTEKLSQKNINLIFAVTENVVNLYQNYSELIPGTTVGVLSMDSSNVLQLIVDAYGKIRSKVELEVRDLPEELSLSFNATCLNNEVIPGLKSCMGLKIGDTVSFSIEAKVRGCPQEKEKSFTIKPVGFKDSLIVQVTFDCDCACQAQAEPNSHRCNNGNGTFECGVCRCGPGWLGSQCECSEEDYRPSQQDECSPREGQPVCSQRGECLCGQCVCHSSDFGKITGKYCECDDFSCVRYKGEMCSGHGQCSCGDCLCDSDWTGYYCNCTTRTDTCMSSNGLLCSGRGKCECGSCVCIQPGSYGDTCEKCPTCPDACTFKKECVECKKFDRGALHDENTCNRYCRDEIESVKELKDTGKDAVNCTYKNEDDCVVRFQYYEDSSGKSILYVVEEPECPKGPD

For αVβ3 Integrin (receptor), the dissociation constant (Kd) in assay [1] was 0.01 µM. Further, in assay [2], the Peak Conductance (nS), Binding Mode NS-S amounted to 0.38 nS. For the same substance, the Frequency with which sweeps yielded an IV curve came out at 23.7% in assay [3], 10.5% in assay [4], 0% in assay [5] and 35.9% in assay [6].
